Values quoted from earlier work, collected in PMC4451881.

Target: CK2beta (Homo sapiens) (UniProt P67870)
Sequence (P67870 2-215): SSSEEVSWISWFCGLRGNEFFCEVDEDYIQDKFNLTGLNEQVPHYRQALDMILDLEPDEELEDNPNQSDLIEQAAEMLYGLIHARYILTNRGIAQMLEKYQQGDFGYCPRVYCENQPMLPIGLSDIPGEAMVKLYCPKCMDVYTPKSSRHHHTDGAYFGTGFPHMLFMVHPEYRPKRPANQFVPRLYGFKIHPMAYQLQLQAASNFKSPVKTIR

Sequence of CK2alpha (P68400 whole entry): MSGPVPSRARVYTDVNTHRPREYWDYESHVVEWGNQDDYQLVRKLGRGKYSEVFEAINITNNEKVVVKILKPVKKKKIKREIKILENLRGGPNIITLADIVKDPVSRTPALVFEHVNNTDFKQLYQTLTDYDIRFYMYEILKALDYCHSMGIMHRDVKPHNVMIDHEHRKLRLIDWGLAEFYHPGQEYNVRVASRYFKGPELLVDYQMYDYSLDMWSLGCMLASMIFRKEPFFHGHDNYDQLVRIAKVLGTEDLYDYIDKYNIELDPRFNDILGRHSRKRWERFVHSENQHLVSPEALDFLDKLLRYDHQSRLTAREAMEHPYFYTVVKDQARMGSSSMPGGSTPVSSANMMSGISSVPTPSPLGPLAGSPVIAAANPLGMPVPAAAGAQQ

Kd: 4 nM
Substance: CK2alpha (from UniProt P68400)
